Source: IntAct's records for PubMed 35512704

B1: Speckle-type POZ protein (Homo sapiens), O43791 (parent)
chain: MSRVPSPPPPAEMSSGPVAESWCYTQIKVVKFSYMWTINNFSFCREEMGEVIKSSTFSSGANDKLKWCLRVNPKGLDEESKDYLSLYLLLVSCPKSEVRAKFKFSILNAKGEETKAMESQRAYRFVQGKDWGFKKFIRRDFLLDEANGLLPDDKLTLFCEVSVVQDSVNISGQNTMNMVKVPECRLADELGGLWENSRFTDCCLCVAGQEFQAHKAILAARSPVFSAMFEHEMEESKKNRVEINDVEPEVFKEMMCFIYTGKAPNLDKMADDLLAAADKYALERLKVMCEDALCSNLSVENAAEILILADLHSADQLKTQAVDFINYHASDVLETSGWKSMVVSHPHLVAEAYRSLASAQCPFLGPPRKRLKQS
partner: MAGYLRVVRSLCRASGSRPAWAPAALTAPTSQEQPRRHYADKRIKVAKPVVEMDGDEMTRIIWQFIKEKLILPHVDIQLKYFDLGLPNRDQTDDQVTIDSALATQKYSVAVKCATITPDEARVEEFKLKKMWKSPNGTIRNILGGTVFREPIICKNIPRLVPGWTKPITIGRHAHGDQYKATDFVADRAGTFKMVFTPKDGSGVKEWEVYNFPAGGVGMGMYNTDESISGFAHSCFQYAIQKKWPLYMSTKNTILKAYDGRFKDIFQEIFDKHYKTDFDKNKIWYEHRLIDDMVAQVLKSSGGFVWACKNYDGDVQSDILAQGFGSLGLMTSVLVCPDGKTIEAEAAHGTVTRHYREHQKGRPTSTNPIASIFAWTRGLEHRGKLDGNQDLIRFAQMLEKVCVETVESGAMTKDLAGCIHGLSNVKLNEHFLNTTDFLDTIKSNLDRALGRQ
B2: Speckle-type POZ protein (Homo sapiens), O43791 (parent)
chain: B1 chain
partner: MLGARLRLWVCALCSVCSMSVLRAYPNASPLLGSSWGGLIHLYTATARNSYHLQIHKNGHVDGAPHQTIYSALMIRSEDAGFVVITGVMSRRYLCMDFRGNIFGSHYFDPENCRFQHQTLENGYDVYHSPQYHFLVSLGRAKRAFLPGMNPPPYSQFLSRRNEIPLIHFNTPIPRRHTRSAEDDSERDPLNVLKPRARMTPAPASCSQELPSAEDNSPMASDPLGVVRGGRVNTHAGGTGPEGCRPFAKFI
B3: Speckle-type POZ protein (Homo sapiens), O43791 (parent)
chain: B1 chain
partner: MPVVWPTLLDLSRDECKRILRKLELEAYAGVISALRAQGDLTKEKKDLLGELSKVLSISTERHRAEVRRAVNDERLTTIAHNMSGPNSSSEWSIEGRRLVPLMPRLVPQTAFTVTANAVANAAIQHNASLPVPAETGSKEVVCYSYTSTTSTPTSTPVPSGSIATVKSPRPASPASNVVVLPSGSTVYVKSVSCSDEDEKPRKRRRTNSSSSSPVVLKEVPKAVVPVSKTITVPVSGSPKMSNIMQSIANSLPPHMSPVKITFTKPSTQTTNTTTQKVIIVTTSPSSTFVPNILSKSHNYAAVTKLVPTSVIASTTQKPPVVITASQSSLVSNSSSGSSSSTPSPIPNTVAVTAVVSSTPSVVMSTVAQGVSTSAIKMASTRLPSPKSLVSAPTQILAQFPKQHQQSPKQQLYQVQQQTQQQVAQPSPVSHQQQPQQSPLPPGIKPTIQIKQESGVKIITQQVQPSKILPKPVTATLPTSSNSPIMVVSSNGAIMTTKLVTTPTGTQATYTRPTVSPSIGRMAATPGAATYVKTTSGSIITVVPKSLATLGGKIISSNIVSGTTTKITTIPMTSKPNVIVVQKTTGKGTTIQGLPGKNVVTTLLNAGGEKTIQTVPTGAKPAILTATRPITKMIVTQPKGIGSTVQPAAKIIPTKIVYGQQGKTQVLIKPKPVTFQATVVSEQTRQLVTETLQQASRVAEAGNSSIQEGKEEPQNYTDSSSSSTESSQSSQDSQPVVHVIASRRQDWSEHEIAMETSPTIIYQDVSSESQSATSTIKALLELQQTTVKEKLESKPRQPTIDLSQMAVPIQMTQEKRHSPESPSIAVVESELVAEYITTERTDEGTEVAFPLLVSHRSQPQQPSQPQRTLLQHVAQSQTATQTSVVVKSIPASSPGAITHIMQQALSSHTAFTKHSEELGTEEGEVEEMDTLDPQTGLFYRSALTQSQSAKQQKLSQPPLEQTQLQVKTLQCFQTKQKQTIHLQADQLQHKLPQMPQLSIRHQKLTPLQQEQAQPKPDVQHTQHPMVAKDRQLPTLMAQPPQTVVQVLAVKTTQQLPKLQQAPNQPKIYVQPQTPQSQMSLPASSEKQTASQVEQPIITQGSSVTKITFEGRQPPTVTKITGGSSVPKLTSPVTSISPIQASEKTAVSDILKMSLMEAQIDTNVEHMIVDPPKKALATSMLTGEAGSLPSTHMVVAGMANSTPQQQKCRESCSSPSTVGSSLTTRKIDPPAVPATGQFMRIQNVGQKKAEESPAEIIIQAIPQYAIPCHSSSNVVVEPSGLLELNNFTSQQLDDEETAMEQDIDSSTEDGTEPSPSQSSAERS
B4: Speckle-type POZ protein (Homo sapiens), O43791 (parent)
chain: B1 chain
partner: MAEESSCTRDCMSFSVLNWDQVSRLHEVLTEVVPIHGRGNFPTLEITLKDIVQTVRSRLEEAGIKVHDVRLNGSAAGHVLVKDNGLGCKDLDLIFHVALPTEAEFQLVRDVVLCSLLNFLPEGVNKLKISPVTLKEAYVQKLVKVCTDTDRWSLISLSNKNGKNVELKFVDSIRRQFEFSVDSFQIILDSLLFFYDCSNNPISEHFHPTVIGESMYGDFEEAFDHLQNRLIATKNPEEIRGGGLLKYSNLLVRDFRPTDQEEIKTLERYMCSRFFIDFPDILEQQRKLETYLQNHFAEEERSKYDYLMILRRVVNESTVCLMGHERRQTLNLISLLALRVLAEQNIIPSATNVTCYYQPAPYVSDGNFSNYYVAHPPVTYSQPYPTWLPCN

Variants of: B1
Settings: with idhp_human IDH2, P48735

Variant | effect of a mutation on the interaction
F102C | with no effect

Variants of: B2
Settings: with fgf23_human FGF23, Q9GZV9

Variant | effect of a mutation on the interaction
Y87C | with no effect

Variants of: B2
Settings: with fgf23_human FGF23, Q9GZV9
Remark: another data set of the same source

Variant | effect of a mutation on the interaction
F102C | with no effect

Variants of: B2
Settings: with fgf23_human FGF23, Q9GZV9
Remark: another data set of the same source

Variant | effect of a mutation on the interaction
F133V | with no effect

Variants of: B2
Settings: with fgf23_human FGF23, Q9GZV9
Remark: another data set of the same source

Variant | effect of a mutation on the interaction
F133L | with no effect

Variants of: B3
Settings: with emsy_human EMSY

Variant | effect of a mutation on the interaction
Y87C | with no effect

Variants of: B3
Settings: with emsy_human EMSY
Remark: another data set of the same source

Variant | effect of a mutation on the interaction
F133V | with no effect

Variants of: B4
Settings: with tet5c_human TENT5C

Variant | effect of a mutation on the interaction
F133L | with no effect

Variants of: B4
Settings: with tet5c_human TENT5C
Remark: another data set of the same source

Variant | effect of a mutation on the interaction
F133V | with no effect

Variants of: B4
Settings: with tet5c_human TENT5C
Remark: another data set of the same source

Variant | effect of a mutation on the interaction
Y87C | with no effect

Variants of: B4
Settings: with tet5c_human TENT5C
Remark: another data set of the same source

Variant | effect of a mutation on the interaction
F102C | with no effect
